Measured values: doi:10.1101/2021.02.19.432005 (bioRxiv, 2021)
Read-outs that look alike come from different tables or passages of the source.

B1: Jagged1^C2-EGF3,wt, C-terminally biotinylated SPR ligand (domain or fragment)
chain: ASGQFELEILSMQNVNGELQNGNCCGGVRNPGDRKCTRDECDTYFKVCLKEYQSRVTAGGPCSFGSGSTPVIGGNTFNLKASRGNDRNRIVLPFSFAWPRSYTLLVEAWDSSNDTIQPDSIIEKASHSGMINPSRQWQTLKQNTGIAHFEYQIRVTCDDHYYGFGCNKFCRPRDDFFGHYACDQNGNKTCMEGWMGPDCNKAICRQGCSPKHGSCKLPGDCRCQYGWQGLYCDKCIPHPGCVHGTCNEPWQCLCETNWGGQLCDKDLNYCGTHQPCLNRGTCSNTGPDKYQCSCPEGYSGPNCE
modifications: biotin on the C-terminal biotin acceptor peptide
B6: Notch1 full ectodomain (Notch1^fe), mouse (domain or fragment)
chain: ARGLRCSQPSGTCLNGGRCEVANGTEACVCSGAFVGQRCQDSNPCLSTPCKNAGTCHVVDHGGTVDYACSCPLGFSGPLCLTPLDNACLANPCRNGGTCDLLTLTEYKCRCPPGWSGKSCQQADPCASNPCANGGQCLPFESSYICRCPPGFHGPTCRQDVNECSQNPGLCRHGGTCHNEIGSYRCACRATHTGPHCELPYVPCSPSPCQNGGTCRPTGDTTHECACLPGFAGQNCEENVDDCPGNNCKNGGACVDGVNTYNCRCPPEWTGQYCTEDVDECQLMPNACQNGGTCHNTHGGYNCVCVNGWTGEDCSENIDDCASAACFQGATCHDRVASFYCECPHGRTGLLCHLNDACISNPCNEGSNCDTNPVNGKAICTCPSGYTGPACSQDVDECALGANPCEHAGKCLNTLGSFECQCLQGYTGPRCEIDVNECISNPCQNDATCLDQIGEFQCICMPGYEGVYCEINTDECASSPCLHNGHCMDKINEFQCQCPKGFNGHLCQYDVDECASTPCKNGAKCLDGPNTYTCVCTEGYTGTHCEVDIDECDPDPCHYGSCKDGVATFTCLCQPGYTGHHCETNINECHSQPCRHGGTCQDRDNSYLCLCLKGTTGPNCEINLDDCASNPCDSGTCLDKIDGYECACEPGYTGSMCNVNIDECAGSPCHNGGTCEDGIAGFTCRCPEGYHDPTCLSEVNECNSNPCIHGACRDGLNGYKCDCAPGWSGTNCDINNNECESNPCVNGGTCKDMTSGYVCTCREGFSGPNCQTNINECASNPCLNQGTCIDDVAGYKCNCPLPYTGATCEVVLAPCATSPCKNSGVCKESEDYESFSCVCPTGWQGQTCEVDINECVKSPCRHGASCQNTNGSYRCLCQAGYTGRNCESDIDDCRPNPCHNGGSCTDGINTAFCDCLPGFQGAFCEEDINECASNPCQNGANCTDCVDSYTCTCPVGFNGIHCENNTPDCTESSCFNGGTCVDGINSFTCLCPPGFTGSYCQYDVNECDSRPCLHGGTCQDSYGTYKCTCPQGYTGLNCQNLVRWCDSAPCKNGGRCWQTNTQYHCECRSGWTGVNCDVLSVSCEVAAQKRGIDVTLLCQHGGLCVDEGDKHYCHCQAGYTGSYCEDEVDECSPNPCQNGATCTDYLGGFSCKCVAGYHGSNCSEEINECLSQPCQNGGTCIDLTNSYKCSCPRGTQGVHCEINVDDCHPPLDPASRSPKCFNNGTCVDQVGGYTCTCPPGFVGERCEGDVNECLSNPCDPRGTQNCVQRVNDFHCECRAGHTGRRCESVINGCRGKPCKNGGVCAVASNTARGFICRCPAGFEGATCENDARTCGSLRCLNGGTCISGPRSPTCLCLGSFTGPECQFPASSPCVGSNPCYNQGTCEPTSENPFYRCLCPAKFNGLLCHILDYSFTGGAGRDIPPPQIEEACELPECQVDAGNKVCNLQCNNHACGWDGGDCSLNFNDPWKNCTQSLQCWKYFSDGHCDSQCNSAGCLFDGFDCQLTEGQCNPLYDQYCKDHFSDGHCDQGCNSAECEWDGLDCAEHVPERLAAGTLVLVVLLPPDQLRNNSFHFLRELSHVLHTNVVFKRDAQGQQMIFPYYGHEEELRKHPIKRSTVGWATSSLLPGTSGGRQRRELDPMDIRGSIVYLEIDNRQCVQSSSQCFQSATDVAAFLGALASLGSLNIPYKIEAVKSEPVE

Columns and labels:
[1] = molecular target: Jagged1^C2-EGF3,HA (mouse) (UniProt Q9QXX0); assay: MST
Notch1^EGF33-NRR = molecular target: T1, Notch1^EGF33-NRR (mouse, UniProt Q01705 1267-1717); assay: SPR
T1 sequence: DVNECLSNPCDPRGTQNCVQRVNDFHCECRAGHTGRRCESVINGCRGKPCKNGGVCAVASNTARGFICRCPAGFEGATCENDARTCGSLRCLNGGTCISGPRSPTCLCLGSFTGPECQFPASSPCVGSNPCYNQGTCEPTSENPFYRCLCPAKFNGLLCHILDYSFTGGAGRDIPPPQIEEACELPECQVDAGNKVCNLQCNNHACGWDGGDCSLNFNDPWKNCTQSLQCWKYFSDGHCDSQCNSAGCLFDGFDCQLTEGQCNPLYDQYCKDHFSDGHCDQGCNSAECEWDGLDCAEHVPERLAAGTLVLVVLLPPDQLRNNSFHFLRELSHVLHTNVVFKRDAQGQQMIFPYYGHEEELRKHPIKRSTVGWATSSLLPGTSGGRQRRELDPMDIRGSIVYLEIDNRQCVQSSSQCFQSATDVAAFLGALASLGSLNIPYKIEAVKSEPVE

SEC-MALS = molecular target: the molecule itself; assay: SEC-MALS
[2] = molecular target: B6; assay: cross-linking
[3] = molecular target: Notch1^EGF33-NRR, C-terminally biotinylated SPR ligand (mouse) (UniProt Q01705); assay: SPR
[4] = molecular target: B1; assay: SPR
cross-linking = molecular target: the molecule itself; assay: cross-linking
[5] = molecular target: B1; assay: SPR; remark: listed apart in the source

## Notch1^EGF33-NRR (from UniProt Q01705 1267-1717) (domain or fragment)
[1]
  Kd: 500 nM

## B1
Notch1^EGF33-NRR
  binding result: binds

B2: Notch1^EGF8-13, C-terminally biotinylated SPR ligand (domain or fragment)
chain: EDVDECQLMPNACQNGGTCHNTHGGYNCVCVNGWTGEDCSENIDDCASAACFQGATCHDRVASFYCECPHGRTGLLCHLNDACISNPCNEGSNCDTNPVNGKAICTCPSGYTGPACSQDVDECALGANPCEHAGKCLNTLGSFECQCLQGYTGPRCEIDVNECISNPCQNDATCLDQIGEFQCICMPGYEGVYCEINTDECASSPCLHNGHCMDKINEFQCQCPKGFNGHLCQ
modifications: biotin on the C-terminal biotin acceptor peptide
Notch1^EGF33-NRR
  Kd: 115000 nM

B3: Notch1 negative regulatory region (Notch1^NRR) (domain or fragment)
chain: EEACELPECQVDAGNKVCNLQCNNHACGWDGGDCSLNFNDPWKNCTQSLQCWKYFSDGHCDSQCNSAGCLFDGFDCQLTEGQCNPLYDQYCKDHFSDGHCDQGCNSAECEWDGLDCAEHVPERLAAGTLVLVVLLPPDQLRNNSFHFLRELSHVLHTNVVFKRDAQGQQMIFPYYGHEEELRKHPIKRSTVGWATSSLLPGTSGGRQRRELDPMDIRGSIVYLEIDNRQCVQSSSQCFQSATDVAAFLGALASLGSLNIPYKIEAVKSEPVE
SEC-MALS
  stoichiometry N: 2

B4: Jagged1 full ectodomain, wild type (Jagged1^fe,wt) (domain or fragment)
chain: ASGQFELEILSMQNVNGELQNGNCCGGVRNPGDRKCTRDECDTYFKVCLKEYQSRVTAGGPCSFGSGSTPVIGGNTFNLKASRGNDRNRIVLPFSFAWPRSYTLLVEAWDSSNDTIQPDSIIEKASHSGMINPSRQWQTLKQNTGIAHFEYQIRVTCDDHYYGFGCNKFCRPRDDFFGHYACDQNGNKTCMEGWMGPDCNKAICRQGCSPKHGSCKLPGDCRCQYGWQGLYCDKCIPHPGCVHGTCNEPWQCLCETNWGGQLCDKDLNYCGTHQPCLNRGTCSNTGPDKYQCSCPEGYSGPNCEIAEHACLSDPCHNRGSCKETSSGFECECSPGWTGPTCSTNIDDCSPNNCSHGGTCQDLVNGFKCVCPPQWTGKTCQLDANECEAKPCVNARSCKNLIASYYCDCLPGWMGQNCDININDCLGQCQNDASCRDLVNGYRCICPPGYAGDHCERDIDECASNPCLNGGHCQNEINRFQCLCPTGFSGNLCQLDIDYCEPNPCQNGAQCYNRASDYFCKCPEDYEGKNCSHLKDHCRTTTCEVIDSCTVAMASNDTPEGVRYISSNVCGPHGKCKSQSGGKFTCDCNKGFTGTYCHENINDCESNPCKNGGTCIDGVNSYKCICSDGWEGAHCENNINDCSQNPCHYGGTCRDLVNDFYCDCKNGWKGKTCHSRDSQCDEATCNNGGTCYDEVDTFKCMCPGGWEGTTCNIARNSSCLPNPCHNGGTCVVNGDSFTCVCKEGWEGPICTQNTNDCSPHPCYNSGTCVDGDNWYRCECAPGFAGPDCRININECQSSPCAFGATCVDEINGYQCICPPGHSGAKCHEVSGRSCITMGRVILDGAKWDDDCNTCQCLNGRVACSKVWCGPRPCRLHKSHNECPSGQSCIPVLDDQCFVRPCTGVGECRSSSLQPVKTKCTSDSYYQDNCANITFTFNKEMMSPGLTTEHICSELRNLNILKNVSAEYSIYIACEPSLSANNEIHVAISAEDIRDDGNPVKEITDKIIDLVSKRDGNSSLIAAVAEVRVQRRPLKNRTD
[2]
  binding result: binds

B5: Jagged1^EGF8-11,Fc (Fc-tagged, covalently dimerized) (Fc fusion)
chain: DIDECASNPCLNGGHCQNEINRFQCLCPTGFSGNLCQLDIDYCEPNPCQNGAQCYNRASDYFCKCPEDYEGKNCSHLKDHCRTTTCEVIDSCTVAMASNDTPEGVRYISSNVCGPHGKCKSQSGGKFTCDCNKGFTGTYCHENINDCESNPCKNGGTCIDGVNSYKCICSDGWEGAHCE
[3]
  Kd: 290 nM
[4]
  Kd: 340 nM

## B6
cross-linking
  binding result: binds

B7: Jagged1^CRD,Fc (Fc-tagged, covalently dimerized) (Fc fusion)
chain: EVSGRSCITMGRVILDGAKWDDDCNTCQCLNGRVACSKVWCGPRPCRLHKSHNECPSGQSCIPVLDDQCFVRPCTGVGECRSSSLQPVKTKCTSDSYYQDNCANITFTFNKEMMSPGLTTEHICSELRNLNILKNVSAEYSIYIACEPSLSANNEIHVAISAEDIRDDGNPVKEITDKIIDLVSKRDGNSSLIAAVAEVRVQRRPLKNRTD
[3]
  Kd: 290 nM
[4]
  Kd: 930 nM

B8: Notch1^NRRΔloop (domain or fragment)
chain: EEACELPECQVDAGNKVCNLQCNNHACGWDGGDCSLNFNDPWKNCTQSLQCWKYFSDGHCDSQCNSAGCLFDGFDCQLTEGQCNPLYDQYCKDHFSDGHCDQGCNSAECEWDGLDCAEHVPERLAAGTLVLVVLLPPDQLRNNSFHFLRELSHVLHTNVVFKRDAQGQQMIFPYYGDIRGSIVYLEIDNRQCVQSSSQCFQSATDVAAFLGALASLGSLNIPYKIEAVKSEPVE
[5]
  Kd: ~1000 nM
